T1: CD38 on Raji cells (CD38 positive cells) (UniProt P28907 1-300, limits assumed)
T1 sequence (looked up): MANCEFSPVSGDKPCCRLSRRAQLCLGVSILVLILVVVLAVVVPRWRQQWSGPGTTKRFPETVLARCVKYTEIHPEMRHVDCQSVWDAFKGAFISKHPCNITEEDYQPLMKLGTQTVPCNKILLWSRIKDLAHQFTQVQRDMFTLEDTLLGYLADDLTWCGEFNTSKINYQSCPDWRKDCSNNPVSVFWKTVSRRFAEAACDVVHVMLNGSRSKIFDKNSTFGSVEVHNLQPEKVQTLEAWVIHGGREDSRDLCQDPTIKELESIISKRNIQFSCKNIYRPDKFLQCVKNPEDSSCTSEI

T2: CD38-His (UniProt P28907 43-300)
T2 construct: also called target antigen CD38; not shown: His tag
T2 sequence (looked up): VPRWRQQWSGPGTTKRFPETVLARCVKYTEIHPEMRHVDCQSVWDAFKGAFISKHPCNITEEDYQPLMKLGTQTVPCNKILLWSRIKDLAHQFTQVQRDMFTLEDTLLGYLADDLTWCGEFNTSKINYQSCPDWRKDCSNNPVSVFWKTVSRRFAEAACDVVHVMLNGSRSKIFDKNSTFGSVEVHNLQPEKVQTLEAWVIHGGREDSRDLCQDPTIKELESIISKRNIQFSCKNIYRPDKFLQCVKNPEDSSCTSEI


Legend:
[1] = molecular target: T1, CD38 on Raji cells (CD38 positive cells); assay: cell-based or functional assay
[2] = molecular target: T2, CD38-His; assay: ELISA, CD38-His coated at 1 µg/ml, anti-human IgG HRP detection
Description: (1) With SG003 as the control, the binding activity between the fusion protein and CD38 was evaluated by ELISA.
Target antigen CD38-His (1 μg/ml) was coated on ELISA bars, overnight at 4° C.; after washing with PBST, 10% of fetal calf serum was added and blocked at 37° C. for 1 hour; different concentrations of SG003 antibody, SG3847L1 or SG3847L2 fusion protein were added and reacted at 37° C. for 1 hour; after washing with PBST, horseradish peroxidase-labeled goat anti-human IgG secondary antibodies (Goat Anti human IgG HRP, Thermo Fisher Scientific) were added and reacted at 37° C. for 30 minutes, and washed with PBST for 5 times; each well was added with 100 μl TMB (eBioscience), placed in dark at room temperature (20±5° C.) for 1-2 min; then each well was added with 100 μl 2N H₂SO₄ stop solution to terminate the reaction of the substrate, OD values were read at 450 nm on the microplate reader, and the capacity of the fusion protein to bind the target antigen CD38 was analyzed.

[3] = molecular target: T3, CD47-His (UniProt Q08722 19-141, limits assumed); assay: ELISA, CD47-His coated at 1 µg/ml, anti-human IgG HRP detection
T3 construct: also called target antigen CD47; not shown: His tag
T3 sequence (Q08722 19-141 limits assumed): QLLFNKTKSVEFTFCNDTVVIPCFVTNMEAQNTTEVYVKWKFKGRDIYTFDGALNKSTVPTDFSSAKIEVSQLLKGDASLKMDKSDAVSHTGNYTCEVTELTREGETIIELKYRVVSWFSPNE
Description: Target antigen CD47-His (1 μg/ml) was coated on ELISA bars, overnight at 4° C.; after washing with PBST, 10% of fetal calf serum was added and blocked at 37° C. for 1 hour; different concentrations of SS002M91, SG3847L1 or SG3847L2 was added and reacted at 37° C. for 1 hour; after washing with PBST, horseradish peroxidase-labeled goat anti-human IgG secondary antibodies (Goat Anti human IgG HRP, Thermo Fisher Scientific) were added and reacted at 37° C. for 30 minutes, and washed with PBST for 5 times; each well was added with […] (eBioscience), placed in dark at room temperature (20±5° C.) for 1-2 min; then each well was added with 100 μl 2N H₂SO₄ stop solution to terminate the reaction of the substrate, OD values were read at 450 nm on the microplate reader, and the capacity of the fusion protein to bind the target antigen CD47 was analyzed.

[4] = molecular target: T4, biotin-labeled CD47 (Biotin-Fc-CD47) (UniProt Q08722 19-141, limits assumed, biotin-labeled); assay: competition ELISA: SIRPα-His coated at 1 µg/ml, Biotin-Fc-CD47 at 2 µg/ml; competitor SIRPα-His
T4 construct: not shown: Fc part
T4 sequence (Q08722 19-141 limits assumed): as above
Description: SIRPα-His was coated on the assay plate at 1 μg/ml overnight at 4° C.; after washing with PBST, 10% of fetal calf serum was added and blocked at 37° C. for 1 hour; SS002M91, SG3847L1 or SG3847L2 was gradiently diluted respectively with 10% of fetal bovine blood, and Biotin-Fc-CD47 was added into the samples until a final concentration of 2 μg/ml, pre-incubated at 37° C. for 30 min, as the primary antibody; after the assay plate was washed with PBST, the primary antibody was added and incubated at 37° C. for 1 hour; after washing with PBST for 5 times, horseradish peroxidase-labeled avidin (Streptavidin-HRP, Jiaxuan Bio.) was added and incubated at 37° C. for 30 minutes; after washing with PBST for 5 times, each well was added with 100 μl TMB (eBioscience), placed in dark at room temperature (20±5° C.) for 1-5 min; then each well was added with 100 μl 2N H₂SO₄ stop solution to terminate the reaction of the substrate, OD values were read at 450 nm on the microplate reader, and the blocking effects of SS002M91, SG3847L1, SG3847L2 on CD47/SIRPα were analyzed.

[5] = molecular target: T2, CD38-His; assay: bridging ELISA: CD38-His coated, fusion protein titrated, detected with Biotin-Fc-CD47 and streptavidin-HRP (simultaneous binding of CD38 and CD47)
Description: (1) Referring to the principle of FIG. 5, with the anti-CD38 humanized antibody SG003 as the control, the biological activities of the fusion proteins SG3847L1 and SG3847L2 to simultaneously bind two antigens CD38 and CD47 were analyzed by ELISA.
Target antigen CD38-His (1 μg/ml) was coated on ELISA bars, overnight at 4° C.; after washing with PBST, 10% of fetal calf serum was added and blocked at 37° C. for 1 hour; different concentrations of SG003 antibody, SG3847L1 or SG3847L2 fusion protein were added and reacted at 37° C. for 1 hour; after washing with PBST, biotin-labeled CD47 (Biotin-Fc-CD47) was added and reacted at 37° C. for 30 minutes, and washed with PBST for 5 times; horseradish peroxidase-labeled avidin (Streptavidin-HRP, Jiaxuan Bio.) was added and reacted at 37° C. for 30 minutes, and washed with PBST for 5 times; each well was added with 100 μl TMB (eBioscience), placed in dark at room temperature (20±5° C.) for 1-2 min; then each well was added with 100 μl 2N H₂SO₄ stop solution to terminate the reaction of the substrate, OD values were read at 450 nm on the microplate reader, and the capacities of the fusion proteins to simultaneously bind the target antigens CD38 and CD 47 were analyzed.

EC50 [2] | EC50 [3] | IC50 [4] | EC50 [5] | Binder | ADCC EC50 (specific kill rate, LDH release; Raji target cells, NK92MI-CD16a effector cells) [1]
133 pM | – | – | – | anti-CD38 humanized antibody SG003 (antibody, human IgG1, kappa, V domains shown, also called SG003 antibody) VH: QVQLLESGGGLVQPGGSLKLSCVASGFDFSLYWMNWVRQAPGKGLEWIGKINPDSSTINYTPSLKDKFFISRDNAKNTLYLQMTKVRSEDTALYYCARLWIATGGFDYWGQGTTLTVSS VL: EIVMTQSPASLSASLGQRATISCRASSSVSSSAFSYVHWYQQKSGQPPKLLIYLASNLESGVPARFSGSGSGTDFTLTIHPVESEDVATYYCHHSRELPFTFGSGTKLEIKR | 67 pM
175 pM | 114 pM | 46800 pM | 20 pM | fusion protein SG3847L1 (bispecific antibody, human IgG1, kappa, First polypeptide chain = SG003 light chain) heavy: not shown light: EIVMTQSPASLSASLGQRATISCRASSSVSSSAFSYVHWYQQKSGQPPKLLIYLASNLESGVPARFSGSGSGTDFTLTIHPVESEDVATYYCHHSRELPFTFGSGTKLEIKRTVAAPSVFIFPPSDEQLKSGTASVVCLLNNFYPREAKVQWKVDNALQSGNSQESVTEQDSKDSTYSLSSTLTLSKADYEKHKVYACEVTHQGLSSPVTKSFNRGEC | 14 pM
149 pM | 91 pM | 78800 pM | 24 pM | fusion protein SG3847L2 (bispecific antibody, human IgG1, kappa, First polypeptide chain = SG003 light chain) heavy: not shown light: EIVMTQSPASLSASLGQRATISCRASSSVSSSAFSYVHWYQQKSGQPPKLLIYLASNLESGVPARFSGSGSGTDFTLTIHPVESEDVATYYCHHSRELPFTFGSGTKLEIKRTVAAPSVFIFPPSDEQLKSGTASVVCLLNNFYPREAKVQWKVDNALQSGNSQESVTEQDSKDSTYSLSSTLTLSKADYEKHKVYACEVTHQGLSSPVTKSFNRGEC | 13 pM

— patent US20210317230A1 (HANGZHOU SUMGEN BIOTECH, published 2021)
